In patent publication US20100098683A1 (Dana-Farber, published 2010):

Molecular target: T1, GST-galectin-3 (human, UniProt P08515 1-218 = GST)
T1 construct: Full-length galectin-3 in pGEX4T1; also called GST-galectin-3 fusion protein; GST fusion with full-length galectin-3
Assay: GST-galectin-3 pull-down from BT549 lysates, anti-MUC1-C immunoblot
Experimental: Immunoblotting and precipitates. Lysates were prepared from subconfluent cells as described (Li et al., 2001).

T1 sequence (P08515 1-218, tags or fused parts left off): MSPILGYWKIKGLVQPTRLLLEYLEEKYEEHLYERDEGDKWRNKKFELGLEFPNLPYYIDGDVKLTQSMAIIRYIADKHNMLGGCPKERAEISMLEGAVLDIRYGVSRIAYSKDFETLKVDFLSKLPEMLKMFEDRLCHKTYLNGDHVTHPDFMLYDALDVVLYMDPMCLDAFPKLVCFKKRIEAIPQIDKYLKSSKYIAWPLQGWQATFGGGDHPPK

B1: MUC1-C(N36A) (receptor)
chain: SVVVQLTLAFREGTINVHDVETQFNQYKTEAASRYALTISDVSVSDVPFPFSAQSGAGVPGWGIALLVLVCVLVALAIVYLIALAVCQCRRKNYGQLDIFPARDTYHPMSEYPTYHTHGRYVPPSSTDRSPYEKVSAGNGGSSLSYTNPAVAATSANL
notes: Stably expressed in BT549 cells and tested in lysates; lacks the glycosylated 25-20 kDa species; also called MUC1-C with a N36A mutation
B1: no binding.
